This is an account of results in PMC8693265, “Investigation of PAS and CNBH domain interactions in hERG channels and effects of long-QT syndrome-causing mutations with surface plasmon resonance” (The Journal of Biological Chemistry, 2021).

Sequences and labels used below:
B1: hERG PAS domain (residues 2-134) (domain or fragment, human, UniProt Q12809 2-134, looked up)
chain: PVRRGHVAPQNTFLDTIIRKFEGQSRKFIIANARVENCAVIYCNDGFCELCGYSRAEVMQRPCTCDFLHGPRTQRRAAAQIAQALLGAEERKVEIAFYRKDGSCFLCLVDVVPVKNEDGAVIMFILNFEVVME
notes: PAS domain (with PAS-cap) of the human ether-a-go-go-related gene (hERG, Kv11.1, KCNH2) channel, residues 2-134; Cloned in pETM11; The PAS domain expressed from mRNA in oocytes (pGH19) is written under this molecule in the functional rows; also called isolated PAS domain; free PAS domain; not shown: 6-His, N-terminal, cleaved
B5: hERG CNBH domain (residues 734-867) (domain or fragment, human, UniProt Q12809 734-867, looked up)
chain: RSLLQHCKPFRGATKGCLRALAMKFKTTHAPPGDTLVHAGDLLTALYFISRGSIEILRGDVVVAILGKNDIFGEPLNLYARPGKSNGDVRALTYCDLHKIHRDDLLEVLDMYPEFSDHFWSSLEITFNLRDTNM
notes: also called isolated CNBH domain; not shown: 6-His, N-terminal, cleaved

Common to all, as to assay: SPR; one domain amine-coupled to a CM5 chip (~2000-3000 RU), the other injected as analyte over a range of concentrations (maximum 10 uM); Biacore T200, 25 C; 150 mM KCl, 1 mM TCEP, 10% glycerol, 0.05% Tween 20, 30 mM HEPES pH 7.5; fits with the two-state reaction model; for PAS/PAS and CNBH/CNBH the step of oligomerisation is not told
(In general: In SPR one partner is held on a chip, and binding of the other changes the refractive index at the surface.)

Series [1] concerns the molecule itself.
The target of series [2] is B5. The settings on record: both partners purified.
Series [3] concerns the molecule itself. This is another data set of the same source.
For series [4], the target named is B5. The note with it: both partners purified. The source holds these as a separate data set.
In series [5] the target is B1. The settings on record: both partners purified.

Like-named read-outs stand apart in the source and are kept apart here.

Turning to B1, the Kd (as a rule, the equilibrium constant for the complex coming apart) in series [1] stood at 400 nM; in series [2], 1400 nM; in series [3], 1600 nM.

B2: hERG PAS domain with the LQTS-causing mutation R20G (domain or fragment, human, UniProt Q12809 2-134, looked up)
chain: PVRRGHVAPQNTFLDTIIGKFEGQSRKFIIANARVENCAVIYCNDGFCELCGYSRAEVMQRPCTCDFLHGPRTQRRAAAQIAQALLGAEERKVEIAFYRKDGSCFLCLVDVVPVKNEDGAVIMFILNFEVVME
notes: PAS domain of the hERG (KCNH2) channel, residues 2-134, with the genetically occurring LQTS mutation R20G; also called PAS-R20G; not shown: 6-His, N-terminal, cleaved
Turning to B2, the figures for the Kd in series [4] and in series [2] were 2000 nM and 3600 nM, respectively.

B3: hERG PAS domain with the LQTS-causing mutation E58D (domain or fragment, human, UniProt Q12809 2-134, looked up)
chain: PVRRGHVAPQNTFLDTIIRKFEGQSRKFIIANARVENCAVIYCNDGFCELCGYSRADVMQRPCTCDFLHGPRTQRRAAAQIAQALLGAEERKVEIAFYRKDGSCFLCLVDVVPVKNEDGAVIMFILNFEVVME
notes: PAS domain of the hERG (KCNH2) channel, residues 2-134, with the genetically occurring LQTS mutation E58D; also called PAS-E58D; not shown: 6-His, N-terminal, cleaved
For the molecule B3, the dissociation constant (Kd) in series [4] was 200 nM; in series [2], 600 nM.

B4: mEAG PAS domain (residues 7-136) (domain or fragment, mouse (from the name mEAG), UniProt Q60603 7-136, looked up)
chain: RRGLVAPQNTFLENIVRRSNDTNFVLGNAQIVDWPIVYSNDGFCKLSGYHRAEVMQKSSACSFMYGELTDKDTVEKVRQTFENYEMNSFEILMYKKNRTPVWFFVKIAPIRNEQDKVVLFLCTFSDITAF
notes: PAS domain of the mEAG channel, residues 7-136; not shown: 6-His, N-terminal, cleaved
On to B4, for which the dissociation constant Kd in series [5] is approximately 5600 nM; in series [4], approximately 1700 nM.
For B5, the figures for the Kd in series [1] and in series [3] were 5000 nM and 2700 nM, respectively.
